In the DeepSol protein solubility set:

Test: soluble on expression in E. coli; label from the status in PepcDB or PDB records

| Sequence | soluble on expression in E. coli |
| --- | --- |
| MAHHHHHHMNDCISTDKVDLDKKQIKKFLKQINISQLTKMIQFIDNKLLSDWDFNCLTYFDESEYPFFDINLSLICTIDHNIPINIIINFLCFVEKQYNNVPYHNTIHATMVTQKFFCLAKKLGIYDDLEYKIKLVMFISGICHDIGHPGYNNLFFVNSLHPLSIIYNDISVLENYHASITFKILQLNQCNILKNFSEKDFRMMRSYIIELILSTDMKHHFEIISKFRIRRENEDFDYIKNSDDLLILTKMIIKSADISHGSVSWSEHYCWCQRVLSEFYTQGDEELKNKMPLSPLCDRTKHNEVCKSQITFLKFVVMPLFEELSHIDNNKFIKSFCLKRLNSNCIMWDTLMKEEKTIEVYDPAAVKLKDKKKKKVDKKKKSYIDLTLFFIKNV | not soluble |
| MAHHHHHHMNDERVLFLTSSTCITICENQIGIDVLLKTDILHNAVILCESANPDLAFEALSIISKIAYAANHQQICILISCNVIKALKKILNNMKIKPGARARACNALGNIGCETASEVELLIKNDVFPLLVDIFQTDNDFNTKIEAAYAVCACLSKANQKQVGYIISCTATTNRLGQNICMQLIADMLELVSESDPMNNGSVKLCKSILRGLENILDKGDDETRDLSLWENPYVFMFKEVQGDIKLFQMQFFPEYYVVNKTYDILAKYFSLTSTWNNRK | not soluble |
| MAHHHHHHMNKVVIISIFFFFFFQDHNNKSINSYNKINSSSTYTHSRILKQLEFITLEEKTVNALQEMLDSVEEDPSEKKCNRLLAKLKIRNEYHKHRKPHNYYARKNKKKEQKRQHLKKNKGKLNRLQQLEEKLFTHADLLRSAIFERTSRVPDGIFYT | not soluble |
| MAHHHHHHMNREQIARRIDLVGPSTGAIVGVATWCALHGAEADAILNYVAEKMKHKDTTDAQRASLVYVIHELLLSCATRGVSENAKRSILKAVSLTLPSAVRDTLRQRASDHTAFLIALQKATEWWGTLNLFPAAWLAKLQCTVQDGQESAGHRTTVPSALMQVANLLQRYQHAKEQWVQNRNIKAEEGRTGSGVASGQDTAAPLAGGGAGASSAVVDDAARRCLIALRKAVESRFERNAAFLAWCEAERAELEGRATTSSADSGVVKMAHGTSPHVPTHSGSGSSYSVKEEGGHSGGPSGEPNDDEDVLGSFFS | soluble |
| MAHHHHHHMNRHNKFYAEVADELEGEDYYDDDDDDYNNDEEYEEEGEYDEAAYETTASAASPEPVHMPKSTTQATAPAAAAVRVNPYTTISPQVDDDYELLDVLLPQLHALWKTNAPTMLPLSEGEAVTALRASNYDVEPAFLQLKEKRDEERSKRGGGVLRVAAAAGPAKRASTPPTVEPPEPGGEAASDNEGNSASPSASSGRTTITLRGWKGASQRRTKQMLEMEPDKEKPDCTFVIAGHVDAGKSTTLGHLLLLLGRVSIQDVERNEKADRTHHKDSFKYAWLLDQCEEERRRGVTIDSGSFCFETEHRRVHILDAPGHKDFVLNMISSATQADAALLVVTATNSEFETGLHHGTKSHLLVLKTLGVGSIVVAVNKMDAVAYSQERYDYVVRELQLLLKQTRIPEEAIIGFCPISGMTGVNITQRGAKETPWYHDLSLIEMIDRCPLESRLVNSPLRLSLQDVQGTTLYAKVESGRLFTGDMVHFVPSEVRVTIKSIQKPTVAGPVLVAFAGETVEISTNSSVTGLYPGCVGCEPNLLIRSSTDFEAHIQTFRTLTKAILPGASFTIIVHALTVRVHVAALISKMDSKTGNWSKGMVKCVPPAAQAMMLFRAESPVALEPATECRALGRFVLQQDGETVAGGLVTRVVDKA | not soluble |
| MAHHHHHHMNVRKSILNYLILHSSIVRRNHNKSYQKECRQSGSLNWMEKNRKMKSVRPNYFVCIPLSGNKGLVEELIKVQNHVASKFEMLKECAIERNKFHISLLILHVKKSQMVASKEAFREAIEEIKKLNHQAISFDTLETFRNDVLYAGLKEDSRKYVVNMIALLRDAFTKRDIHIFSNHKGKEEAREKTRPSGAIDKGIGNRTDKGAAVPSTYQCSEKEQITPHVTIMKNSYLRKIYANRKPQIFADYYADFNLSKLQTERVVPNKIQFLEMDTDSATSYYRVIDECGLP | not soluble |
| MAHHHHHHMPCRKIIIDTDCGGDDAIGIMTALADPNTDVIAMTAVWGNVNVNQGMENIGKLLDVFERDIPFYKGAEAPLVSDPETVQWGGFGKDGFGDADFPPSARVLVQSKTHAALAITELLRAAKPDEDAVYQLVCLGPLTNIALAMRLDPEVFHVLGSETEPAITIMGGASEAKGNSNLTSEFNMHCDPEAAYIVFNQRSMRPVRVVSWEVTVDCSMTWTFFDKWIGRQENGKKQQNRFQVFIEKVFQRLETFTRPLPDGTKANTGDAEATQDNTCVIPDAVAVVAALYPESILDRFITYCTVELHGRETRGQTCLDWYGTKQSMAKRGRWCNCELITRVDNARFLEAMNGILEYNV | not soluble |
| MAHHHHHHMPENDEHVVVQACSVRVALPASTQPCGVEDAVQHCLHAARAIVQINLVRGTPRVALQLLACRTDACGEQHTASQVLDESPRRLQYALLLRGFEQRGGPVNRLDHTSLACAMCVPNYFSPHHFGAAAVPFFRTYHVTEALAKRRYADAAVMMACLEVETVAEASTEVPPWLARALQLLCRGEDREGVWQAWWIHEVPAATQRRMVCAKSDLVWNVVASHRLQELVAATGGCRDVLLAAAPKPGDFVFQLEEAEDSGATSAALAPVALSAPVTAVYSQAQAARYSVHDIALPLVLDASSEFEGCESLAVIEAQLGFTHDRRRHLSLHPSQRPCQSHTSLPAVAQTNETVFRPLLVEATGYPRATRPWCRSFPEPSVGPAFDRPKAALESNATVFALATDWDLASQTAVARDYAAKSRGPRACVWPLSKRGRALTDRLPAGLMTVASADGSSLLGGASTTNYHGSRCLAIHCTLPARVSLANFVSELAAVEDLRDSQA | not soluble |
| MAHHHHHHMPETTHVTNDAAVPQKHIVEKPHLMDLFRSSASFAKIIAYLQGCSDSVNGTPRSARMVQKASELHPTVRFFVETFFPHLHKIVEEVPLQDMKKQRFGNRAFRVFHERLEADVGGLMQQLVLTLPARSGERSEEEQRCLAVELAEYIKDSFGNSTRIDYGTGHELHFFVVIMICLEECGDAGGTLQAEPTTIVSLNFPQPAPVLVDKRDRVCRLRQGMVFDVFGAYLTFMRRLQKHYHLEPAGSHGVWGLDDYHHLPFIFGAAQLIGKEVPHKTDDSGNGKGYGAILPKHVCEENAVRLHADEYFYFAQVAWVRENKTGPFFEHSSMLYNISGVESWQKIYTGMVKMYAAEVLSKFNVVQHLLFGTHLPWPPDV | soluble |
| MAHHHHHHMPIIESDLLSLAYKAALSALLSEEIYNFGKFLNERHFTERLADSVQHAWILEWLRLCNDGKVEEFEQYAVAHKAEMAASPILSESFPSITKKVRLMALLHLVFYTPFNERTFTFDVIARRCAVDEERVEPLLLAALAQGIIMGKIDGLTQEVHITWVEPRVLSLQEVKELAVHVSRWKEKTLGLMQCMKEAAQETHN | not soluble |
| MAHHHHHHMPKSSPPDEHKVLIKKLTHACASYDSASRKYLTAVKALDSSLEAVAIAIRELSQGEESEDAVTRVDRFCTSVDRHMAGSSAGASFGHNKSGRLSDSAAFNGAEYPFAAYMSDFTREVSSAVDELKEILKKIEKSRSKHDDLVAKYNKKRSEVDTMEMKLAKKNQGIATNEKYSHKLSDRDALKVQVDTGERELRAEFMELLQRRTRILLQVVHGMQTHSSKYYSHLSKAMQA | soluble |
| MAHHHHHHMPPLHSRATRQLVKERSKIEGPRSLHRGIHYQENEAHASSYMQNAKKKRADHRDLLVHHQRINEDLQDIYTRTAALHSDNMTMEERIEESWKKYERIGGKRPANVRTHGQDAVLCANQTAVPYAERLAQVSQQKKELRERGAWERLTHGEAVDYSKGSALHAAKDKRVQMFQRRQLRRAHLLRRVGDPTPLKQSGTYDMNSGTLRVFNKTIRNVQREVAHDARIAEVRKRRKNSRSQWDLNESGNVNRPDQEILRYSRDWELGPQRKARGGGGGGGRGGRKRGRDEL | not soluble |
| MAHHHHHHMPQVDLVKLLQICVNGALAAQQYILLDLIQLRSLEVSRRDVCIADLDQQEIARLRARLKAAVSVDVKGKLEYKEGGSVDDLVTTADVVTQGLMERLLAEAFPDTPFTIIGEEEATTTDAIKIQVERCVEAFRDVNAVAPLQKELEAHASSDSRHVSASTVEELRARVGVFIDPIDATSCFVDGTWGAPMTLVGITVDGVPVAGVSNRFFYSTVDDLTSGGNAGCTGLSYVWNDPSAGPFIVHEGRLATPLWSLGRKTTSNLAMLRVIRSGTTSNKRFEQLLARLQPVEPRSARGAGNKLMLLVVSMLAASDGAAAAACDVFLAPPNSISKWDTCAAHAFLLALGGDMRTLRGELIRYPLRGTTNLKTLPDGVVGLTRWSMTEGLRRLGWQ | not soluble |
| MAHHHHHHMPRSIRVRHGDPDVAEGALTIEVPSSPDADNKAVGDARTPVASLGASSAFFTTYSTVSGDVAHPCANIASGAAPSDEVSPLTSALFMSVDSTPLASSCATKTAASLVNVRSFNSSATVVSVELPNLQSEHAAMTATSCFATRSRDTEAPAAAAAASATNPPPLRHPLGSAPIEGGGGQTQLAGEADTPVQDRTAAPSSSPLMAKASVSASFSGDSSKRCSHTVQSGLSDDLQLTQTTCYLPLLGSAGSREVQRSGDDIDARWVAERESVPAAEPARTTVGNDSFPAEGSEGAMVATTQSASTDVRAAACTVPASNISNTVAATATDVAAPLCPKFEVLATVPAPLVGRVPIRIHWCCAAHWRAVQRTERGAQWAVDGAPADVYCVPAHRNAKRERRSLSASCVEAKSESERGGRSFSGTGENTAWLRDAAGEVKPQHWEVRALSSAVGAPGSTLYDDSNYDAEHEKHGSLKTRSGLPHVHSHSCTDMLTCEFCGHAVERYHSEDCDDEASEASTSMTQTGRACSAPPGRFQDCHGCASAEARSLSSSKIVAFRSNQPSILTPQLLLSSSESAETTVDLDMSGAISSVDVPSWSDSAREEALMAAVALLQ | not soluble |
| MAHHHHHHMPSSFAAQQQGSCNPHQNPVRSHKGGYLRCPFNISSSYAELAERRVHEDLACGRSRAAVADKDGVKAFPSTGPQVDSDGIDGDFAGRPWSRAGVGANRLSGKEKRTQQEQAEHIYGRGTLAEDDGAVAATGAVSVTSDLLQENMFAVDVRERAALQKVVPRAVREQVKRRKLEDVKKERLSPGNHCRHGCAPLHTDRAAGEEAGEDDDVESRSEDHMAGPPRERTRFSSPAAGSSRVGAPPLPHSAGSKDHPSGGSSSANVGAERSPRSGPSDASAQRPPLREPTPAPVSAKSNCPKNRMQMLDGLRASALMNKKGRR | soluble |
| MAHHHHHHMPYIASIDQGTTSSRCIIFDEKFTILSAHQLFHKQITPRPGWLEHDPEEIYSNCCLCLAEALKKLRSKDPKFEKVSAIGITNQRETGVAWDRKTGKPLCNAIVWSDARTYEVSNRIAKECGGGDRNFAANITGLPVSTYFTAFKFRWMLENVPAVAAARKSGSLLLGTIETWLLWKLSEGKVFLTDVSNASRTFLMNLRTQQWCDKLCQELDIPLAALPEIRSNSERYCDVVANDHGIRDALGVPTPVTGCIGDQQSALFGHIGLHKGDAKNTYGTGCFMLMNVGTEPQFSKHGLLGTIAYKLGTEPTKFALEGSVAGAGATVEWMRSNLGFFDHPMQMESIARKVGGTDGVVFVPAFGGLLAPYWDPTARGTLVGMTYKTNKSHIIRAALEAISMQVNAVMLAMKEDSGVEMNCLRVDGGLTRSRLLMEMQADILGVNLYVPHLTETTALGAALCAGLAVGVWKSVEEMQKTAKEHLSGETVNPITTDEQVRKARLEAWNAAVKLSRWAKL | soluble |
